Experimental data: patent publication US20040058416A1 (published 2004)
One block for each binder: values may come before it.

What was measured:
[1] = target: T1, nerve growth factor (NGF) (UniProt P01138 122-241, limits assumed, iodinated (125I) where used as tracer); test: NGF binding to immunoadhesin (competitive displacement, as in Example 4)
T1 construct: also called 125I-NGF; labelled NGF

[2] = target: T2, trkB-IgG immunoadhesin (human trkB extracellular domain fused to human IgG-1 Fc) (human); test: competitive displacement of iodinated BDNF from trkB-IgG by unlabelled BDNF
T2 construct: also called chimeras containing trkB
T2 sequence (Q16620 32-423): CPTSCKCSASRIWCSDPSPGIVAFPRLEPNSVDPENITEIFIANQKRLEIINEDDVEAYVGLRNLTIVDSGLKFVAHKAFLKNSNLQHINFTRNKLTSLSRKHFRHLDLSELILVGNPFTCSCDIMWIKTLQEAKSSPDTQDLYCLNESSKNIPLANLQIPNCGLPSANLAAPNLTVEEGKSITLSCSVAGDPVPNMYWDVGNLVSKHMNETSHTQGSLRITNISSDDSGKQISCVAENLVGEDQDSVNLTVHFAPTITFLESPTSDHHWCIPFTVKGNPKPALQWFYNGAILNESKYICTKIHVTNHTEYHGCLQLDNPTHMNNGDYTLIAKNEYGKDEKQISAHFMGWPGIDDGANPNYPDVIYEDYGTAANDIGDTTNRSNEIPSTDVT

[3] = target: T1, nerve growth factor (NGF); test: saturation binding with 125I-NGF, immunoadhesin
[4] = target: T3, trkA-IgG immunoadhesin (human trkA extracellular domain fused to human IgG-1 Fc) (human, UniProt P04629 33-408); test: competitive displacement of iodinated NGF from trkA-IgG by unlabelled NT3
T3 construct: also called native trkA; chimeras containing trkA extracellular domain; not shown: human IgG-1 hinge-CH2-CH3 (aspartic acid 216 to residue 441)

[5] = target: T2, trkB-IgG immunoadhesin (human trkB …); test: competitive displacement of iodinated BDNF from trkB-IgG by unlabelled NT3

B1: trkA variant ?4A immunoadhesin (deletion of Val193 to Val282 of trkA) (Fc fusion, not shown: a dimerising Fc or GST)
chain: AAPCPDACCPHGSSGLRCTRDGALDSLHHLPGAENLTELYIENQQHLQHLELRDLRGLGELRNLTIVKSGLRFVAPDAFHFTPRLSRLNLSFNALESLSWKTVQGLSLQELVLSGNPLHCSCALRWLQRWEEEGLGGVPEQKLQCHGQGPLAHMPNASCGSFPASVQLHTAVEMHHWCIPFSVDGQPAPSLRWLFNGSVLNETSFIFTEFLEPAANETVRHGCLRLNQPTHVNNGNYTLLAANPFGQASASIMAAFMDNPFEFNPEDPIPDTNSTSGDPV
notes: 'Mature' variant
fold reduction of affinity for NGF relative to native trkA [1]: ~2 fold

B3: trkC variant s5A immunoadhesin (trkC Val297 to Thr420 replaced with trkA Ser277 to Val402) (Fc fusion, not shown: a dimerising Fc or GST)
chain: CPANCVCSKTEINCRRPDDGNLFPLLEGQDSGNSNGNANINITDISRNITSIHIENWRSLHTLNAVDMELYTGLQKLTIKNSGLRSIQPRAFAKNPHLRYINLSSNRLTTLSWQLFQTLSLRELQLEQNFFNCSCDIRWMQLWQEQGEAKLNSQNLYCINADGSQLPLFRMNISQCDLPEISVSHVNLTVREGDNAVITCNGSGSPLPDVDWIVTGLQSINTHQTNLNWTNVHAINLTLVNVTSEDNGFTLTCIAENVVGMSNASSVQVNVSFPASVQLHTAVEMHHWCIPFSVDGQPAPSLRWLFNGSVLNETSFIFTEFLEPAANETVRHGCLRLNQPTHVNNGNYTLLAANPFGQASASIMAAFMDNPFEFNPEDPIPDTNSTSGDPV
notes: also called s5A chimera
Kd [3]: 0.0386 nM

Next, values leading:

IC50 [2]: 0.081 nM
B2: brain-derived neurotrophic factor (BDNF) (ligand, UniProt P23560 129-247, looked up)
chain: HSDPARRGELSVCDSISEWVTAADKKTAVDMSGGTVTVLEKVPVSKGQLKQYFYETKCNPMGYTKEGCRGIDKRHWNSQCRTTQSYVRALTMDSKKRIGWRFIRIDTSCVCTLTIKRGR
modifications: radiolabelled (iodinated) where used as tracer
notes: also called NT-2; labelled BDNF

IC50 [4]: 20 nM | IC50 [5]: 18 nM
B4: neurotrophin-3 (NT-3) (ligand, UniProt P20783 139-257, looked up)
chain: YAEHKSHRGEYSVCDSESLWVTDKSSAIDIRGHQVTVLGEIKTGNSPVKQYFYETRCKEARPVKNGCRGIDDKHWNSQCKTSQTYVRALTSENNKLVGWRWIRIDTSCVCALSRKIGRT
modifications: radiolabelled (iodinated) where used as tracer
notes: also called labelled NT3; cold NT3
